# Target: PU.1 (IVT) (UniProt P17947 1-270)
# Test: PBM; 20 mM HEPES pH 7.9, 100 mM NaCl, 1 mM DTT, 0.2 mg/mL BSA, 0.02% Triton X-100, 2% milk, 0.4 mg/mL salmon testes DNA, 1 h; temperature not stated
# Settings: protein: ivt; blunt
# Outline: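 Binding is given as a z-score derived from scanned fluorescence that was normalised by linear regression. To obtain it, full-length untagged PU.1 from coupled human in vitro transcription/translation was applied for 1 h to custom double-stranded DNA microarrays of 20-bp genomic sites and single-nucleotide variants, using 10 probes per site with 5 in each orientation. The binding buffer was HEPES pH 7.9 with 100 mM NaCl, 2% milk and salmon testes DNA, and detection used anti-PU.1 and then a fluorescent secondary antibody.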
row,Binder,binding signal
1,PBM_PU1_IRF8_v2_1 (dsDNA) DNA 1: GCCTAGCACTAAAAGAGGAAGTGGCAGATGTGCTAGGTCTTGATTCGCTTGACGCTGCTG DNA 2: CAGCAGCGTCAAGCGAATCAAGACCTAGCACATCTGCCACTTCCTCTTTTAGTGCTAGGC,8.16 z-score
2,PBM_PU1_IRF8_v2_2 (dsDNA) DNA 1: GCCTAGCACGAAAAGGGGAAGTGTATTCCGTGCTAGGTCTTGATTCGCTTGACGCTGCTG DNA 2: CAGCAGCGTCAAGCGAATCAAGACCTAGCACGGAATACACTTCCCCTTTTCGTGCTAGGC,7.7 z-score
3,PBM_PU1_IRF8_v2_24 (dsDNA) DNA 1: GCCTAGCACATAAGGAGGAAGTGAGACAGGTGCTAGGTCTTGATTCGCTTGACGCTGCTG DNA 2: CAGCAGCGTCAAGCGAATCAAGACCTAGCACCTGTCTCACTTCCTCCTTATGTGCTAGGC,4.54 z-score
4,PBM_PU1_IRF8_v2_30 (dsDNA) DNA 1: GCCTAGCACATTTTAAGGAAGTGAAACCCGTGCTAGGTCTTGATTCGCTTGACGCTGCTG DNA 2: CAGCAGCGTCAAGCGAATCAAGACCTAGCACGGGTTTCACTTCCTTAAAATGTGCTAGGC,5.72 z-score
5,PBM_PU1_IRF8_v2_3 (dsDNA) DNA 1: GCCTAGCACATAAGGAGGAAGTGGCTGAAGTGCTAGGTCTTGATTCGCTTGACGCTGCTG DNA 2: CAGCAGCGTCAAGCGAATCAAGACCTAGCACTTCAGCCACTTCCTCCTTATGTGCTAGGC,5.13 z-score
6,PBM_PU1_IRF8_v2_4 (dsDNA) DNA 1: GCCTAGCACGAAAACAGGAAGTGGACAACGTGCTAGGTCTTGATTCGCTTGACGCTGCTG DNA 2: CAGCAGCGTCAAGCGAATCAAGACCTAGCACGTTGTCCACTTCCTGTTTTCGTGCTAGGC,7.4 z-score
7,PBM_PU1_IRF8_v2_5 (dsDNA) DNA 1: GCCTAGCACAAATAGAGGAAGTCAGAGAGGTGCTAGGTCTTGATTCGCTTGACGCTGCTG DNA 2: CAGCAGCGTCAAGCGAATCAAGACCTAGCACCTCTCTGACTTCCTCTATTTGTGCTAGGC,6.21 z-score
8,PBM_PU1_IRF8_v2_6 (dsDNA) DNA 1: GCCTAGCACGAAGAGAGGAAGTGAAATTAGTGCTAGGTCTTGATTCGCTTGACGCTGCTG DNA 2: CAGCAGCGTCAAGCGAATCAAGACCTAGCACTAATTTCACTTCCTCTCTTCGTGCTAGGC,5.03 z-score
9,PBM_PU1_IRF8_v2_13 (dsDNA) DNA 1: GCCTAGCACGAAAAGAGGAAGTCAGATTGGTGCTAGGTCTTGATTCGCTTGACGCTGCTG DNA 2: CAGCAGCGTCAAGCGAATCAAGACCTAGCACCAATCTGACTTCCTCTTTTCGTGCTAGGC,8.24 z-score
10,PBM_PU1_IRF8_v2_16 (dsDNA) DNA 1: GCCTAGCACAATATAGGGAAGTGCTTAACGTGCTAGGTCTTGATTCGCTTGACGCTGCTG DNA 2: CAGCAGCGTCAAGCGAATCAAGACCTAGCACGTTAAGCACTTCCCTATATTGTGCTAGGC,5.82 z-score
11,PBM_PU1_IRF8_v2_22 (dsDNA) DNA 1: GCCTAGCACGAAAAGAGGAAGTGGAAACAGTGCTAGGTCTTGATTCGCTTGACGCTGCTG DNA 2: CAGCAGCGTCAAGCGAATCAAGACCTAGCACTGTTTCCACTTCCTCTTTTCGTGCTAGGC,8.54 z-score
12,PBM_PU1_IRF8_v2_23 (dsDNA) DNA 1: GCCTAGCACCAAATGAGGAAGTGAGACTTGTGCTAGGTCTTGATTCGCTTGACGCTGCTG DNA 2: CAGCAGCGTCAAGCGAATCAAGACCTAGCACAAGTCTCACTTCCTCATTTGGTGCTAGGC,7.69 z-score
